Assay results from ChEMBL document CHEMBL1145552, “Substrate specificity and diastereoselectivity of strictosidine glucosidase, a key enzyme in monoterpene indole alkaloid biosynthesis” (Bioorg Med Chem Lett, 2008).

Experiments:
[1] = target: T1, Strictosidine beta-glucosidase (Catharanthus roseus) (UniProt Q9M7N7); assay: Ratio of relative Vmax to K0.5 of Catharanthus roseus strictosidine glucosidase
T1 sequence (whole entry): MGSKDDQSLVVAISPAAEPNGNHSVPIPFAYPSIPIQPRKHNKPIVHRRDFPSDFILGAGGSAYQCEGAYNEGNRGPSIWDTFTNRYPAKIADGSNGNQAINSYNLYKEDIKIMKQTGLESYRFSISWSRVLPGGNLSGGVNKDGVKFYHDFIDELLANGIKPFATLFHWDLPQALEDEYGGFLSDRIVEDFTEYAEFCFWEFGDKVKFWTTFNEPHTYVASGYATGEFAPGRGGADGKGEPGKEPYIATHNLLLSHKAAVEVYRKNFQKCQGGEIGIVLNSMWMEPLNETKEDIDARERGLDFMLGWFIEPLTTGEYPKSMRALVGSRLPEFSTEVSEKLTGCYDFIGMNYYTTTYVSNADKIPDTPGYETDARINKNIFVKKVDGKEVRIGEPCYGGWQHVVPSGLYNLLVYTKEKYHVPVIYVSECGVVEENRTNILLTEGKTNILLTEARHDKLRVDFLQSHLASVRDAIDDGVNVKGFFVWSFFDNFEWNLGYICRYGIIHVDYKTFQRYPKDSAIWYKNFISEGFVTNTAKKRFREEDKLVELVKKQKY

[2] = substrate: C=C[C@H]1[C@H](O[C@@H]2O[C@H](CO)[C@@H](O)[C@H](O)[C@H]2O)OC=C(C(=O)OC)[C@H]1C[C@@H]1NCCc2c1[nH]c1ccccc21; assay: (§1) Activity of Catharanthus roseus strictosidine glucosidase
[3] = substrate: C=C[C@H]1[C@H](O[C@@H]2O[C@H](CO)[C@@H](O)[C@H](O)[C@H]2O)OC=C(C(=O)OC)[C@H]1C[C@@H]1NCCc2c1[nH]c1ccc(C)cc21; assay: as §1
[4] = substrate: C=C[C@H]1[C@H](O[C@@H]2O[C@H](CO)[C@@H](O)[C@H](O)[C@H]2O)OC=C(C(=O)OC)[C@H]1C[C@@H]1NCCc2c1[nH]c1ccc(F)cc21; assay: as §1
[5] = substrate: C=C[C@H]1[C@H](O[C@@H]2O[C@H](CO)[C@@H](O)[C@H](O)[C@H]2O)OC=C(C(=O)OC)[C@H]1C[C@@H]1NCCc2c1[nH]c1c(C)cccc21; assay: as §1
[6] = substrate: C=C[C@H]1[C@H](O[C@@H]2O[C@H](CO)[C@@H](O)[C@H](O)[C@H]2O)OC=C(C(=O)OC)[C@H]1C[C@@H]1NCCc2c1[nH]c1cccc(C)c21; assay: as §1
[7] = substrate: C=C[C@H]1[C@H](O[C@@H]2O[C@H](CO)[C@@H](O)[C@H](O)[C@H]2O)OC=C(C(=O)OC)[C@H]1C[C@@H]1NCCc2c1[nH]c1cc(OC)ccc21; assay: as §1
[8] = substrate: C=C[C@H]1[C@H](O[C@@H]2O[C@H](CO)[C@@H](O)[C@H](O)[C@H]2O)OC=C(C(=O)OC)[C@H]1C[C@@H]1NCCc2c1[nH]c1cc(F)ccc21; assay: as §1
[9] = substrate: C=C[C@H]1[C@H](O[C@@H]2O[C@H](CO)[C@@H](O)[C@H](O)[C@H]2O)OC=C(C(=O)OC)[C@H]1C[C@@H]1NCCc2c1[nH]c1cc(C)ccc21; assay: as §1
[10] = substrate: C=C[C@H]1[C@H](O[C@@H]2O[C@H](CO)[C@@H](O)[C@H](O)[C@H]2O)OC=C(C(=O)OC)[C@H]1C[C@@H]1NCCc2c1[nH]c1ccc(OC)cc21; assay: as §1

C=C[C@H]1[C@H](O[C@@H]2O[C@H](CO)[C@@H](O)[C@H](O)[C@H]2O)OC=C(C(=O)OC)[C@H]1C[C@@H]1NCCc2c1[nH]c1cc(OC)ccc21
Ratio [1]: 0.2 min⁻¹

C=C[C@H]1[C@H](O[C@@H]2O[C@H](CO)[C@@H](O)[C@H](O)[C@H]2O)OC=C(C(=O)OC)[C@H]1C[C@@H]1NCCc2c1[nH]c1cccc(C)c21
Ratio [1]: 0.2 min⁻¹

C=C[C@H]1[C@H](O[C@@H]2O[C@H](CO)[C@@H](O)[C@H](O)[C@H]2O)OC=C(C(=O)OC)[C@H]1C[C@@H]1NCCc2c1[nH]c1cc(F)ccc21
Ratio [1]: 0.7 min⁻¹

C=C[C@H]1[C@H](O[C@@H]2O[C@H](CO)[C@@H](O)[C@H](O)[C@H]2O)OC=C(C(=O)OC)[C@H]1C[C@@H]1NCCc2c1[nH]c1ccc(C)cc21
Ratio [1]: 0.6 min⁻¹

C=C[C@H]1[C@H](O[C@@H]2O[C@H](CO)[C@@H](O)[C@H](O)[C@H]2O)OC=C(C(=O)OC)[C@H]1C[C@@H]1NCCc2c1[nH]c1ccccc21
Ratio [1]: 1 min⁻¹

C=C[C@H]1[C@H](O[C@@H]2O[C@H](CO)[C@@H](O)[C@H](O)[C@H]2O)OC=C(C(=O)OC)[C@H]1C[C@@H]1NCCc2c1[nH]c1c(C)cccc21
Ratio [1]: 0.3 min⁻¹

C=C[C@H]1[C@H](O[C@@H]2O[C@H](CO)[C@@H](O)[C@H](O)[C@H]2O)OC=C(C(=O)OC)[C@H]1C[C@@H]1NCCc2c1[nH]c1cc(C)ccc21
Ratio [1]: 0.5 min⁻¹

C=C[C@H]1[C@H](O[C@@H]2O[C@H](CO)[C@@H](O)[C@H](O)[C@H]2O)OC=C(C(=O)OC)[C@H]1C[C@@H]1NCCc2c1[nH]c1ccc(F)cc21
Ratio [1]: 0.7 min⁻¹

C=C[C@H]1[C@H](O[C@@H]2O[C@H](CO)[C@@H](O)[C@H](O)[C@H]2O)OC=C(C(=O)OC)[C@H]1C[C@@H]1NCCc2c1[nH]c1ccc(OC)cc21
Ratio [1]: 0.3 min⁻¹

B1: Strictosidine beta-glucosidase (Catharanthus roseus), Q9M7N7 (protein)
chain: MGSKDDQSLVVAISPAAEPNGNHSVPIPFAYPSIPIQPRKHNKPIVHRRDFPSDFILGAGGSAYQCEGAYNEGNRGPSIWDTFTNRYPAKIADGSNGNQAINSYNLYKEDIKIMKQTGLESYRFSISWSRVLPGGNLSGGVNKDGVKFYHDFIDELLANGIKPFATLFHWDLPQALEDEYGGFLSDRIVEDFTEYAEFCFWEFGDKVKFWTTFNEPHTYVASGYATGEFAPGRGGADGKGEPGKEPYIATHNLLLSHKAAVEVYRKNFQKCQGGEIGIVLNSMWMEPLNETKEDIDARERGLDFMLGWFIEPLTTGEYPKSMRALVGSRLPEFSTEVSEKLTGCYDFIGMNYYTTTYVSNADKIPDTPGYETDARINKNIFVKKVDGKEVRIGEPCYGGWQHVVPSGLYNLLVYTKEKYHVPVIYVSECGVVEENRTNILLTEGKTNILLTEARHDKLRVDFLQSHLASVRDAIDDGVNVKGFFVWSFFDNFEWNLGYICRYGIIHVDYKTFQRYPKDSAIWYKNFISEGFVTNTAKKRFREEDKLVELVKKQKY
Km [2]: 220 µM
Vmax [2]: 0.078 mM/min
Km [3]: 71 µM
Vmax [3]: 0.016 mM/min
Km [4]: 150 µM
Vmax [4]: 0.038 mM/min
Km [5]: 140 µM
Vmax [5]: 0.016 mM/min
Km [6]: 220 µM
Vmax [6]: 0.018 mM/min
Km [7]: 430 µM
Vmax [7]: 0.037 mM/min
Km [8]: 120 µM
Vmax [8]: 0.032 mM/min
Km [9]: 92 µM
Vmax [9]: 0.017 mM/min
Km [10]: 370 µM
Vmax [10]: 0.035 mM/min
